Experimental data: paper PMC10636135, “Computational design of highly efficient thermostable MHET hydrolases and dual enzyme system for PET recycling” (Communications Biology, 2023)

How the values were obtained:
[1] = substrate: O=C(O)c1ccc(C(=O)OCCO)cc1; experiment: initial rates, TPA by HPLC, Michaelis-Menten fit; assay type: biochemical, Pseudideonella sakaiensis; settings: 50 mM sodium phosphate, pH 7.5, 50 °C
MHET hydrolysis kinetics = substrate: O=C(O)c1ccc(C(=O)OCCO)cc1; experiment: MHET hydrolysis kinetics; assay type: biochemical, unidentified prokaryotic organism; settings: conditions in supplement; pH 7.5; 50.0 °C
Excerpt: MHET hydrolysis kinetics on LCC-ICCG | (LCC-ICCG and FAST-PETase) had weak catalytic activities with regard to the hydrolysis of MHET

[2] = substrate: O=C(O)c1ccc(C(=O)OCCO)cc1; experiment: initial rates, TPA by HPLC, Michaelis-Menten fit; assay type: biochemical, Geobacillus stearothermophilus; settings: 50 mM sodium phosphate, pH 7.5, 50 °C, M3
Excerpt: initial rates, TPA by HPLC, Michaelis-Menten fit on Est30 (1TQH scaffold; wild-type carboxylesterase) | single variants M1 (G130L) and M3 (G130F) (Table S13) had improved catalytic efficiencies

[3] = substrate: O=C(O)c1ccc(C(=O)OCCO)cc1; experiment: initial rates, TPA by HPLC, Michaelis-Menten fit; assay type: biochemical, Geobacillus stearothermophilus; settings: 50 mM sodium phosphate, pH 7.5, 50 °C, 10 min, 0.5 μM enzyme
[4] = substrate: O=C(O)c1ccc(C(=O)OCCO)cc1; experiment: initial rates, TPA by HPLC, Michaelis-Menten fit; assay type: biochemical, Geobacillus stearothermophilus; settings: 50 mM sodium phosphate, pH 7.5, 50 °C, 10 min, 0.5 μM enzyme; remark: listed apart in the source
Excerpt: initial rates, TPA by HPLC, Michaelis-Menten fit on Est30 (1TQH scaffold; wild-type carboxylesterase)

B1: FAST-PETase (Pseudideonella sakaiensis; D186H/N233K/R224Q/R280A/S121E) (protein)
chain: QTNPYARGPNPTAASLEASAGPFTVRSFTVSRPSGYGAGTVYYPTNAGGTVGAIAIVPGYTARQSSIKWWGPRLASHGFVVITIDTNSTLDQPESRSSQQMAALRQVASLNGTSSSPIYGKVDTARMGVMGWSMGGGGSLISAANNPSLKAAAPQAPWHSSTNFSSVTVPTLIFACENDSIAPVNSSALPIYDSMSQNAKQFLEIKGGSHSCANSGNSNQALIGKKGVAWMKRFMDNDTRYSTFACENPNSTAVSDFRTANCS
[1]
  Km: 33.87 ± 2.82 mM
  kcat: 2.34 ± 0.14 s⁻¹

B2: LCC-ICCG (unidentified prokaryotic organism; D238C/F243I/S283C/Y127G) (protein)
chain: QSNPYQRGPNPTRSALTADGPFSVATYTVSRLSVSGFGGGVIYYPTGTSLTFGGIAMSPGYTADASSLAWLGRRLASHGFVVLVINTNSRFDGPDSRASQLSAALNYLRTSSPSAVRARLDANRLAVAGHSMGGGGTLRIAEQNPSLKAAVPLTPWHTDKTFNTSVPVLIVGAEADTVAPVSQHAIPFYQNLPSTTPKVYVELCNASHIAPNSNNAAISVYTISWMKLWVDNDTRYRQFLCNVNDPALCDFRTNNRHCQ
MHET hydrolysis kinetics
  Km: 20.13 ± 3.69 mM
  kcat: 1.41 ± 0.13 s⁻¹

B3: Est30 (1TQH scaffold; wild-type carboxylesterase) (Geobacillus stearothermophilus; G129F) (protein)
chain: MKIVPPKPFFFEAGERAVLLLHGFTGNSADVRMLGRFLESKGYTCHAPIYKGHGVPPEELVHTGPDDWWQDVMNGYEFLKNKGYEKIAVAGLSLGGVFSLKLGYTVPIEGIVTMCAPMYIKSEETMYEFVLEYAREYKKREGKSEEQIEQEMEKFKQTPMKTLKALQELIADVRDHLDLIYAPTFVVQARHDEMINPDSANIIYNEIESPVKQIKWYEQSGHVITLDQEKDQLHEDIYAFLESLDW
notes: E. coli BL21(DE3), pET-22b(+) NdeI/XhoI, C-terminal His6 tag kept, HisTrap purified
[2]
  Km: 1.12 ± 0.45 mM
  kcat: 0.75 ± 0.05 s⁻¹

B4: Est30 (1TQH scaffold; wild-type carboxylesterase) (Geobacillus stearothermophilus; G129F/I170K/M126S) (protein)
chain: MKIVPPKPFFFEAGERAVLLLHGFTGNSADVRMLGRFLESKGYTCHAPIYKGHGVPPEELVHTGPDDWWQDVMNGYEFLKNKGYEKIAVAGLSLGGVFSLKLGYTVPIEGIVTMCAPMYIKSEETSYEFVLEYAREYKKREGKSEEQIEQEMEKFKQTPMKTLKALQELKADVRDHLDLIYAPTFVVQARHDEMINPDSANIIYNEIESPVKQIKWYEQSGHVITLDQEKDQLHEDIYAFLESLDW
notes: as for B3
[3]; M13
  Km: 2.59 ± 0.41 mM
  kcat: 21 ± 0.83 s⁻¹
  kcat/Km: 8110 M⁻¹ s⁻¹

B5: Est30 (1TQH scaffold; wild-type carboxylesterase) (Geobacillus stearothermophilus; G129L/I170K) (protein)
chain: MKIVPPKPFFFEAGERAVLLLHGFTGNSADVRMLGRFLESKGYTCHAPIYKGHGVPPEELVHTGPDDWWQDVMNGYEFLKNKGYEKIAVAGLSLGGVFSLKLGYTVPIEGIVTMCAPMYIKSEETMYELVLEYAREYKKREGKSEEQIEQEMEKFKQTPMKTLKALQELKADVRDHLDLIYAPTFVVQARHDEMINPDSANIIYNEIESPVKQIKWYEQSGHVITLDQEKDQLHEDIYAFLESLDW
notes: as for B3
[3]; M8 (KL-MHETase)
  Km: 4.56 ± 0.75 mM
  kcat: 21.4 ± 1.12 s⁻¹
  kcat/Km: 4700 M⁻¹ s⁻¹

B6: Est30 (1TQH scaffold; wild-type carboxylesterase) (Geobacillus stearothermophilus; G129L/I170K/M126S) (protein)
chain: MKIVPPKPFFFEAGERAVLLLHGFTGNSADVRMLGRFLESKGYTCHAPIYKGHGVPPEELVHTGPDDWWQDVMNGYEFLKNKGYEKIAVAGLSLGGVFSLKLGYTVPIEGIVTMCAPMYIKSEETSYELVLEYAREYKKREGKSEEQIEQEMEKFKQTPMKTLKALQELKADVRDHLDLIYAPTFVVQARHDEMINPDSANIIYNEIESPVKQIKWYEQSGHVITLDQEKDQLHEDIYAFLESLDW
notes: as for B3
[3]; M14 (KLS-MHETase)
  Km: 1.73 ± 0.24 mM
  kcat: 21.8 ± 0.62 s⁻¹
  kcat/Km: 12600 M⁻¹ s⁻¹

B7: Est30 (1TQH scaffold; wild-type carboxylesterase) (Geobacillus stearothermophilus; G129L) (protein)
chain: MKIVPPKPFFFEAGERAVLLLHGFTGNSADVRMLGRFLESKGYTCHAPIYKGHGVPPEELVHTGPDDWWQDVMNGYEFLKNKGYEKIAVAGLSLGGVFSLKLGYTVPIEGIVTMCAPMYIKSEETMYELVLEYAREYKKREGKSEEQIEQEMEKFKQTPMKTLKALQELIADVRDHLDLIYAPTFVVQARHDEMINPDSANIIYNEIESPVKQIKWYEQSGHVITLDQEKDQLHEDIYAFLESLDW
notes: as for B3
[4]; M1
  Km: 5.36 ± 1.13 mM
  kcat: 2.97 ± 0.21 s⁻¹
  kcat/Km: 550 M⁻¹ s⁻¹

B8: Est30 (1TQH scaffold; wild-type carboxylesterase) (Geobacillus stearothermophilus) (protein)
chain: MKIVPPKPFFFEAGERAVLLLHGFTGNSADVRMLGRFLESKGYTCHAPIYKGHGVPPEELVHTGPDDWWQDVMNGYEFLKNKGYEKIAVAGLSLGGVFSLKLGYTVPIEGIVTMCAPMYIKSEETMYEGVLEYAREYKKREGKSEEQIEQEMEKFKQTPMKTLKALQELIADVRDHLDLIYAPTFVVQARHDEMINPDSANIIYNEIESPVKQIKWYEQSGHVITLDQEKDQLHEDIYAFLESLDW
notes: as for B3
[4]
  Km: 8.98 ± 2.49 mM
  kcat: 1.17 ± 0.14 s⁻¹
  kcat/Km: 130 M⁻¹ s⁻¹

B9: Est30 (1TQH scaffold; wild-type carboxylesterase) (Geobacillus stearothermophilus; I170K) (protein)
chain: MKIVPPKPFFFEAGERAVLLLHGFTGNSADVRMLGRFLESKGYTCHAPIYKGHGVPPEELVHTGPDDWWQDVMNGYEFLKNKGYEKIAVAGLSLGGVFSLKLGYTVPIEGIVTMCAPMYIKSEETMYEGVLEYAREYKKREGKSEEQIEQEMEKFKQTPMKTLKALQELKADVRDHLDLIYAPTFVVQARHDEMINPDSANIIYNEIESPVKQIKWYEQSGHVITLDQEKDQLHEDIYAFLESLDW
notes: as for B3
[3]; M2, substrate range 2-20 mM
  Km: 53.70 ± 34.77 mM
  kcat: 36 ± 18.2 s⁻¹
  kcat/Km: 670 M⁻¹ s⁻¹
